Target: T1, outer-capsid protein σ3 on T3SA- virions (reovirus strain T1L, UniProt P07939 1-365)
T1 sequence (looked up): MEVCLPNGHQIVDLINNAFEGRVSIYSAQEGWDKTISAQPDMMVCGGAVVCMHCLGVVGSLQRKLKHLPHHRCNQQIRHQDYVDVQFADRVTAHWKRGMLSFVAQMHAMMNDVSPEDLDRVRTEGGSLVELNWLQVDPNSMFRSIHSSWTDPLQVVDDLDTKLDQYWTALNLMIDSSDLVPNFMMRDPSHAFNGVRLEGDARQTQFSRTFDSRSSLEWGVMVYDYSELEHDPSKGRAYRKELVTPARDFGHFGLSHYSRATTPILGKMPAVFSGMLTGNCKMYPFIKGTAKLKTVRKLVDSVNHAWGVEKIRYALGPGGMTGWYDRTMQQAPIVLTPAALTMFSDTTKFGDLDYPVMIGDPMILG
Test: cryo-EM structure

B1: NgR1-His (domain or fragment, human, UniProt Q9BZR6 27-310, looked up)
chain: CPGACVCYNEPKVTTSCPQQGLQAVPVGIPAASQRIFLHGNRISHVPAASFRACRNLTILWLHSNVLARIDAAAFTGLALLEQLDLSDNAQLRSVDPATFHGLGRLHTLHLDRCGLQELGPGLFRGLAALQYLYLQDNALQALPDDTFRDLGNLTHLFLHGNRISSVPERAFRGLHSLDRLLLHQNRVAHVHPHAFRDLGRLMTLYLFANNLSALPTEALAPLRALQYLRLNDNPWVCDCRARPLWAWLQKFRGSSSEVPCSLPQRLAGRDLKRLAANDLQGCA
Question: Does B1 bind?
Answer: binds

Reference: article doi:10.1101/2021.07.23.453469 (bioRxiv, 2021)
